Source: US20130225479A1, “Methods and Compositions for Treating Inflammation” (The University of North Carolina at Chapel Hill, priority 2010, published 2013)

B1: GST-Orf63 (other)
chain: MDGTDALEKLTKGLSGGGGSLHQTKLLMEFQLRGLPVPALLNSSTTEQFLNTVAQLPTDLSKFIRDYRVFALVRAAYFLEPPSSIDPLEAARALGRLVDILSSQPPQNTAPAQPPTSDDTLNNCTLLKLLAHYADQIAGFKTPALPPVPPGIIGLFTCVEQMYHACFQKYWAAALPPMWILTYDPPTSPLQDWLIVAYGNKEGLLLPSGIPSEEVLAKTLVTEHHELFVSRSNSTETAVTMPVSKERALAIYRVFAKGEVVAENTPILAFTDVELSTLKPHYLFIYDFIIEALCKSYTYSCTQARLESFLSRGIDFMTDLGQYLDTATSGKQQLTHSQIKEIKYRLLSCGLSASACDVFRTVIMTLPYRPTPNLANLSTFMGMVHQLTMFGHYFYRCLGSYSPTGLAFTELQKILTRASAEQTERNPWRHPGISDIPLRWKISRALAFFVPPAPINTLQRVYAALPSQLMRAIFEISVKTTWGGAVPANLARDIDTGPNTQHISSTPPPTLKDVETYCQGLRVGDTEYDEDIVRSPLFADAFTKSHLLPILREVLENRLQKNRALFQIRWLIIFAAEAATGLIPARRPLARAYFHIMDILEERHSQDALYNLLDCIQELFTHIRQAVPDAQCPHAFLQSLFVFQFRPFVLKHQQGVTLFLDGLQTSLPPVISLANLGDKLCRLEFEYDSEGDFVRVPVAPPEQPPHVHLSHFKKTIQTIEQATREATVAMTTIAKPIYPAYIRLLQRLEYLNRLNHHILRIPFPQDALSELQETYLAAFARLTKLAADAANTCSYSLTKYFGVLFQHQLVPTAIVKKLLHFDEAKDTTEAFLQSLAQPVVQGQRQGAAGGSGVLTQKELELLNKINPQFTDAQANIPPSIKRSYSNKYDVPEVSVDWETYSRSAFEAPDDELRFVPLTLAGLRKLFVE
modifications: N-terminal GST fusion and C-terminal FLAG tag are not carried by the letters
notes: also called GST-tagged Orf63; purified GST-Orf63 protein; not shown: N-terminal GST of the pGex5p-1 vector with its protease-site linker; C-terminal FLAG tag
B2: GST-Orf63: purified GST-tagged Orf63 fusion protein (protein)
chain: B1 chain
modifications: left off: a dimerising Fc or GST; small tags and cut ends
notes: purified GST-tagged Orf63 fusion protein

Columns and labels:
[1] = target: T1, human NLRP1 (full-length) (human, UniProt Q9C000 1-1473, myc or V5 epitope tags in some assays (letters not given, left out); 35S-methionine label in the GST binding assay); assay: GST binding assay on glutathione beads with in vitro translated 35S-labeled protein, phosphorimager
T1 construct: also called NLRP1-myc; NLRP1-V5
T1 sequence: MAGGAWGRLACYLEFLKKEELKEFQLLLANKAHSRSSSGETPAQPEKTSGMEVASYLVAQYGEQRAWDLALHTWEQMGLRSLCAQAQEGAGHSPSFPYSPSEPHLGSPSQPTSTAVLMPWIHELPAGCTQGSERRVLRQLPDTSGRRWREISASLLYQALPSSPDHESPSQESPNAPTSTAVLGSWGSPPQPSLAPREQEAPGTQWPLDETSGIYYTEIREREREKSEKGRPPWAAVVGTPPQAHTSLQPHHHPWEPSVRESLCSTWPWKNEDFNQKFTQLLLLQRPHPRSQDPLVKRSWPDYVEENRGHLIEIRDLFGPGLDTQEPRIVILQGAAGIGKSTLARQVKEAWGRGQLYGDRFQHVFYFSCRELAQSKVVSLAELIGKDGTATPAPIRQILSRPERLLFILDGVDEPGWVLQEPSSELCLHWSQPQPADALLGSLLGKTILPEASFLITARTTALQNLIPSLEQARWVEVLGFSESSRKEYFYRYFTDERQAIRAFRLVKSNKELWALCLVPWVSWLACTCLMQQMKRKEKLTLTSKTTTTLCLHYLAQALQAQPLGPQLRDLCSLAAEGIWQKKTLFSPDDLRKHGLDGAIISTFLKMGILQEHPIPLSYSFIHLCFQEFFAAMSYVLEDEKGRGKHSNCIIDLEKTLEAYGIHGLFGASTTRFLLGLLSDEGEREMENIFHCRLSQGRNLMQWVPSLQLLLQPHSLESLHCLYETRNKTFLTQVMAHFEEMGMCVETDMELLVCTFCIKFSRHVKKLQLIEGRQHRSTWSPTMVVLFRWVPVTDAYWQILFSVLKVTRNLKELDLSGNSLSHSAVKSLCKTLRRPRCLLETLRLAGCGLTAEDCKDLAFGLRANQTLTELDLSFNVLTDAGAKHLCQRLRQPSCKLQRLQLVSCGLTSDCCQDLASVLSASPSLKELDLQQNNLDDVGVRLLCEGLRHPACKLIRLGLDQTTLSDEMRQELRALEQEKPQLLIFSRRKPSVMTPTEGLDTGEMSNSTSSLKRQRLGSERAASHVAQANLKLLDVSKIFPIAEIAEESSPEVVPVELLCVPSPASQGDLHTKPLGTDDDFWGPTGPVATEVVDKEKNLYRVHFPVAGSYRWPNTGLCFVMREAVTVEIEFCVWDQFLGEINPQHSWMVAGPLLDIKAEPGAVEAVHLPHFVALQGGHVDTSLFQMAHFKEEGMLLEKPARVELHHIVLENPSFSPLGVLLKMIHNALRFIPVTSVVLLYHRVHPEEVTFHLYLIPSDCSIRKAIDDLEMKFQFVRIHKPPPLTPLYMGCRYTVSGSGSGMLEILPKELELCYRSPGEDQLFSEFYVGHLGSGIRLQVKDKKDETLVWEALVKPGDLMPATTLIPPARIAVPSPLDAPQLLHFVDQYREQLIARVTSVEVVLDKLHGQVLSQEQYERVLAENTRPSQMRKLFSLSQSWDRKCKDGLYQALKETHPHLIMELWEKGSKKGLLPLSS

NLRP3 = target: T2, NLRP3 (Homo sapiens, UniProt Q96P20); assay: GST binding assay with 35S-methionine-labeled NLRP3; conditions: purified GST-Orf63 on glutathione beads
T2 construct: primers designed to the open reading frames of procaspase-1, pro-IL-1beta, NOD1, NOD2, and NLRP3; expressed in transfected cells; host or cells: 293T
T2 sequence (Q96P20 whole entry): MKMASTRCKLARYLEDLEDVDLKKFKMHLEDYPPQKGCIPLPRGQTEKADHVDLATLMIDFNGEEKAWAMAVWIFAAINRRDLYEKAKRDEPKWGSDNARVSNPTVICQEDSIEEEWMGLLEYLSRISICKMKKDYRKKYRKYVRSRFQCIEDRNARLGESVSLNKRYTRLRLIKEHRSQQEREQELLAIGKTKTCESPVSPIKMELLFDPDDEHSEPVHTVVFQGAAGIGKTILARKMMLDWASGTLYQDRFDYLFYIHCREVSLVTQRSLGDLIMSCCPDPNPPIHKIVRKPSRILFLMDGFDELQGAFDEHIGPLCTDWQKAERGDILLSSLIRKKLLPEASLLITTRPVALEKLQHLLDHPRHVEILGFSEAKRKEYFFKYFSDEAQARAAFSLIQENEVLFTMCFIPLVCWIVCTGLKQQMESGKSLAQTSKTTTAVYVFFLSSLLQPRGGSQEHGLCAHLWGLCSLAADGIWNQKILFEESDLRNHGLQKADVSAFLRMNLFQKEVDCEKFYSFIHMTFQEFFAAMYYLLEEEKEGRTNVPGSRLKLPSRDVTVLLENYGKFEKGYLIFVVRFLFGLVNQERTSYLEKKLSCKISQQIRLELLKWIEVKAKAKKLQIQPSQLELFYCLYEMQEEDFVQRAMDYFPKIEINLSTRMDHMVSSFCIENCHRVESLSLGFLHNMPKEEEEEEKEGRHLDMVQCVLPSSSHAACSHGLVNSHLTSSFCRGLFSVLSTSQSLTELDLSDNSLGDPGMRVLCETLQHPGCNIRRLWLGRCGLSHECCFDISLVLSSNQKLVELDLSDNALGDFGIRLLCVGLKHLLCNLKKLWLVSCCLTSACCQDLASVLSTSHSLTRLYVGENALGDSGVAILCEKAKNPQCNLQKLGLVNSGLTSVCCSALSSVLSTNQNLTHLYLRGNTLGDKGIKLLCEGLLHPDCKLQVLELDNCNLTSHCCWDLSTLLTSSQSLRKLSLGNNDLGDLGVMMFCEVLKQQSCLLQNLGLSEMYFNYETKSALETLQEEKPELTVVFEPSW
Description: (§1) In-vitro transcription/translation: [^35S]-methionine (Perkin-Elmer) labeled NLRP1, NLRP3 and control luciferase proteins were prepared using TnT T7 Quick Coupled Transcription/Translation System (Promega) according to manufacturer's instructions. pcDNA3-NLRP1 and pcDNA3-NLRP3 plasmids were used for the transcription/translation reaction.
(§2) GST binding Assay: Expression and purification of GST fusion proteins were performed as previously described (29) and equal amounts of GST and GST-Orf63 were bound to glutathione beads (29). Equivalent amounts (1×10^5 cpm) of ^35S-methionine labeled NLRP1, NLRP3 and luciferase proteins were incubated with the GST and GST-Orf63 bound protein in NETN+ buffer plus protease inhibitors for an hour at 4° C. NETN+ buffer comprised of 20 mM Tris (pH 7.5), 100 mM NaCl, 1 mM EDTA, 0.1% NP-40, 1 mM DTT. The bound complexes were washed five times (5 minute washes) in NETN+ buffer. The samples were subjected to SDS-PAGE. The gel was fixed, dried and exposed to a phosphoimager.

NLRP1 = target: T3, NLRP1 (Homo sapiens, UniProt Q9C000); assay: GST binding assay with 35S-methionine-labeled NLRP1; conditions: purified GST-Orf63 on glutathione beads
T3 construct: host or cells: cell-free coupled transcription/translation
T3 sequence (Q9C000 1-1473): T1 sequence
Description: as §1, §2

Molecule	binding result [1]	binding of 35S-methionine-labeled NLRP3 (NLRP3)	binding of 35S-methionine-labeled NLRP1 (NLRP1)
B1	binds	–	–
B2	–	bound	bound
